How the values were obtained:
[1] = target: T1, HLA-A*24:02 on FlowPRA Single Antigen beads (human, UniProt P04439-2 25-302 at identity 0.92)); assay: single antigen FlowPRA bead assay, flow cytometry
T1 construct: Bought HLA class I antigen on One Lambda beads. b2m and peptide are not described
T1 MHC heavy: not shown

[2] = target: T2, HLA-A*23:01 on FlowPRA Single Antigen beads (human, UniProt P13749 25-305 (Pan troglodytes entry), limits assumed); assay: single antigen FlowPRA bead assay, flow cytometry
T2 construct: Bought HLA class I antigen on One Lambda beads. b2m and peptide are not described
T2 MHC heavy: not shown

B1: BB7.2 antibody (antibody, IgG2b, V domains shown)
VH: QVQLQQSGPELVKPGASVKMSCKASGYTFTSYHIQWVKQRPGQGLEWIGWIYPGDGSTQYNEKFKGKTTLTADKSSSTAYMLLSSLTSEDSAIYFCAREGTYYAMDYWGQGTSVTVSS
VL: DVLMTQTPLSLPVSLGDQVSISCRSSQSIVHSNGNTYLEWYLQKPGQSPKLLIYKVSNRFSGVPDRFSGSGSGTDFTLKISRVEAEDLGVYYCFQGSHVPRTFGGGTKLEIK
notes: also called mouse monoclonal antibody (BB7.2)
B1: no binding [1]; no binding [2].

Reference: patent US20200283529A1 (UNIVERSITY OF BRITISH COLUMBIA, published 2020)
